According to US20040048327:

Experiments:
[1] = biological target: T1, Ac-AHph-trans-EP-COOEt
T1 chain: X

[2] = biological target: T2, Ac-Leu-AHph-trans-EP-COOEt
T2 chain: LX

[3] = biological target: T3, Ac-Leu-ALeu-trans-EP-COOEt
T3 chain: LL

[4] = biological target: T4, Boc-Abu-AHph-trans-EP-CH2CH2Ph
T4 chain: XX

[5] = biological target: T5, Boc-Nle-AHph-trans-EP-CH2CH2Ph
T5 chain: XX

[6] = biological target: T6, Boc-Nle-AHph-trans-EP-COOEt
T6 chain: XX

[7] = biological target: T7, Boc-Np2-ALeu-trans-EP-COOEt
T7 chain: XL

[8] = biological target: T8, Boc-Nva-AHph-trans-EP-COOEt
T8 chain: XX

[9] = biological target: T9, Cbz-AHph-trans-EP-COOEt
T9 chain: X

[10] = biological target: T10, Cbz-ALeu-trans-EP-COOEt
T10 chain: L

[11] = biological target: T11, Cbz-APhe-trans-EP-CH2CH2Ph
T11 chain: F

[12] = biological target: T12, Cbz-APhe-trans-EP-COOEt
T12 chain: F

[13] = biological target: T13, Cbz-Ala-Ala-AAsn-(2R, 3R)-EP-COOEt
T13 chain: AAN

[14] = biological target: T14, Cbz-Ala-Ala-AAsn-(2S, 3S)-EP-COOEt
T14 chain: AAN

[15] = biological target: T15, Cbz-Ala-Ala-AAsn-cis-EP-COOEt
T15 chain: AAN

[16] = biological target: T16, Cbz-Ala-Ala-AAsn-trans-EP-COOEt
T16 chain: AAN

[17] = biological target: T17, Cbz-Ala-Ala-NHN(CH2COOEt)-trans-EP-COOEt
T17 chain: AAD

[18] = biological target: T18, Cbz-Asp-Glu-Val-AAsp-(2R, 3R)-EP-COOEt (not fully specified)
T18 chain: DEVD

[19] = biological target: T19, Cbz-Asp-Glu-Val-AAsp-(2S, 3S)-EP-COOEt (not fully specified)
T19 chain: DEVD

[20] = biological target: T20, Cbz-Leu-AAbu-trans-EP-COOEt
T20 chain: LX

[21] = biological target: T21, Cbz-Leu-AAbu-trans-EP-COOH
T21 chain: LX

[22] = biological target: T22, Cbz-Leu-AHph-(2R, 3R)-EP-COOEt
T22 chain: LX

[23] = biological target: T23, Cbz-Leu-AHph-(2S, 3S)-EP-COOEt
T23 chain: LX

[24] = biological target: T24, Cbz-Leu-AHph-cis-EP-COOEt
T24 chain: LX

[25] = biological target: T25, Cbz-Leu-ALeu-(2R, 3R)-EP-COOEt
T25 chain: LL

[26] = biological target: T26, Cbz-Leu-ALeu-(2S, 3S)-EP-COOEt
T26 chain: LL

[27] = biological target: T27, Cbz-Leu-ALeu-cis-EP-COOEt
T27 chain: LL

[28] = biological target: T28, Cbz-Leu-ALeu-trans-EP-COOEt
T28 chain: LL

[29] = biological target: T29, Cbz-Leu-Glu-Thr-AAsp-(2R, 3R)-EP-COOEt
T29 chain: LETD

[30] = biological target: T30, Cbz-Leu-Glu-Thr-AAsp-(2S, 3S)-EP-COOEt
T30 chain: LETD

[31] = biological target: T31, Cbz-Leu-Leu-ALeu-(2R, 3R)-EP-COOEt
T31 chain: LLL

[32] = biological target: T32, Cbz-Leu-Leu-ALeu-(2S, 3S)-EP-COOEt
T32 chain: LLL

[33] = biological target: T33, Cbz-Leu-Leu-ALeu-(2S, 3S)-EP-COOH
T33 chain: LLL

[34] = biological target: T34, Cbz-Leu-Leu-ALeu-trans-EP-COOEt
T34 chain: LLL

[35] = biological target: T35, Cbz-Leu-Phe-AGln-trans-EP-COOEt
T35 chain: LFQ

[36] = biological target: T36, Cbz-Phe-ALeu-trans-EP-CH2CH2Ph
T36 chain: FL

[37] = biological target: T37, Cbz-Phe-ALeu-trans-EP-COOEt
T37 chain: FL

[38] = biological target: T38, Cbz-Phe-APhe-trans-EP-CH2CH2Ph
T38 chain: FF

[39] = biological target: T39, PhPr-Val-Ala-AAsp-trans-EP-CH2CH2Ph
T39 chain: VAD

[40] = biological target: T40, PhPr-Val-Ala-AAsp-trans-EP-COOCH2Ph
T40 chain: VAD

[41] = biological target: T41, Suc-Np2-ALeu-trans-EP-COOEt
T41 chain: XL

B1: papain (protein)
chain: IPEYVDWRQKGAVTPVKNQGSCGSCWAFSAVVTIEGIIKIRTGNLNEYSEQELLDCDRRSYGCNGGYPWSALQLVAQYGIHYRNTYPYEGVQRYCRSREKGPYAAKTDGVRQVQPYNEGALLYSIANQPVSVVLEAAGKDFQLYRGGIFVGPCGNKVDHAVAAVGYGPNYILIKNSWGTGWGENGYIRIKRGTGNSYGVCGLYTSSFYPVKN
Question: What does the source list for B1?
Answer: kobs/[I] [1]: 26.9 M⁻¹ s⁻¹; kobs/[I] [2]: 1.9 M⁻¹ s⁻¹; kobs/[I] [3]: 2.09 M⁻¹ s⁻¹; kobs/[I] [4]: 0.2 M⁻¹ s⁻¹; kobs/[I] [5]: 0.5 M⁻¹ s⁻¹; kobs/[I] [6]: 1.6 M⁻¹ s⁻¹; kobs/[I] [7]: 3.9 M⁻¹ s⁻¹; kobs/[I] [8]: 1.4 M⁻¹ s⁻¹; kobs/[I] [9]: 18.8 M⁻¹ s⁻¹; kobs/[I] [10]: 16.1 M⁻¹ s⁻¹; kobs/[I] [11]: 0.92 M⁻¹ s⁻¹; kobs/[I] [12]: 8.5 M⁻¹ s⁻¹; kobs/[I] [13]: 3 M⁻¹ s⁻¹; kobs/[I] [14]: 4 M⁻¹ s⁻¹; kobs/[I] [15]: NI; kobs/[I] [16]: 0.9 M⁻¹ s⁻¹; kobs/[I] [17]: 8.17 M⁻¹ s⁻¹; kobs/[I] [18]: NI; kobs/[I] [19]: NI; kobs/[I] [20]: 4.94 M⁻¹ s⁻¹; kobs/[I] [21]: 1.47 M⁻¹ s⁻¹; kobs/[I] [22]: 2.16 M⁻¹ s⁻¹; kobs/[I] [23]: 5.68 M⁻¹ s⁻¹; kobs/[I] [24]: 1.03 M⁻¹ s⁻¹; kobs/[I] [25]: 6.7 M⁻¹ s⁻¹; kobs/[I] [26]: 10.5 M⁻¹ s⁻¹; kobs/[I] [27]: 0.38 M⁻¹ s⁻¹; kobs/[I] [28]: 6.37 M⁻¹ s⁻¹; kobs/[I] [29]: 0.24 M⁻¹ s⁻¹; kobs/[I] [30]: 0.47 M⁻¹ s⁻¹; kobs/[I] [31]: 20.6 M⁻¹ s⁻¹; kobs/[I] [32]: 10.5 M⁻¹ s⁻¹; kobs/[I] [33]: 6.93 M⁻¹ s⁻¹; kobs/[I] [34]: 34.8 M⁻¹ s⁻¹; kobs/[I] [35]: 0.9 M⁻¹ s⁻¹; kobs/[I] [36]: 0.7 M⁻¹ s⁻¹; kobs/[I] [37]: 0.91 M⁻¹ s⁻¹; kobs/[I] [38]: 0.5 M⁻¹ s⁻¹; kobs/[I] [39]: NI; kobs/[I] [40]: < 10 M⁻¹ s⁻¹; kobs/[I] [41]: 1.39 M⁻¹ s⁻¹
